Data published in the supplement of paper PMC9170038.

System: MS2 coat protein
Assay: apparent KD of MS2 coat protein; designed switch direction (-1 OFF switch, 1 ON switch): -1; higher = weaker reporter binding
How it was run: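 Normalised cluster fluorescence was curve-fitted, and each design's median over clusters is its apparent KD. Before this, SNAP-549-labelled MS2 coat protein was titrated from 0.7 or 1.5 nM, doubling to 3 µM, over RNA switches transcribed on Illumina chips by stalled E. coli RNA polymerase. Titrations had no input, 200 uM small-molecule ligand, or an oligonucleotide input, and steps lasted 0.8–1.5 h (lowest) to 10–20 min (highest).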

[1] = Eterna round: R95, input ligand: FMN 200 uM
[2] = Eterna round: R95, input ligand: microRNA oligo, concentration not stated
[3] = Eterna round: R95, input ligand: none
[4] = input ligand: microRNA oligo, concentration not stated

Sequence: AAACCUAAUGUUAGGAUAUGCUUCGGGCUUCCGCUGCAGAAGGAACAUGAGGAUCACCCAUGUCAAAUAAAAUC [JL-BMX4-4.39 ViennaUCT mod] (Eterna round: R97, puzzle: Brourd's mod of Exclusion 4)
- apparent KD of MS2 coat protein (input ligand: FMN 200 uM): 81.8 nM
- apparent KD of MS2 coat protein (input ligand: none): 17.6 nM

Sequence: ACAAGCGAAAGGCUCGUCUUAUUUUUGUAGAGGUUCUAAACAUGAGGAUCACCCAUGUAGUGGCGAUGGUGGAGGUA [JR_SV3TOV2_Sub069] (puzzle: Sensor v3, turn-off variant 2)
- apparent KD of MS2 coat protein [1]: 41.8 nM
- apparent KD of MS2 coat protein [2]: 44.2 nM
- apparent KD of MS2 coat protein [3]: 42.4 nM

Sequence: ACAGUCACAUGGGUACCAGACAUGAGGAUCACCCAUGUGACAGGUACUUUGUGGCGUCUUGUAUAAUUAAUAAUCAA [Sensor v2, turn off variant (Maaon - vinnie MOD7)] (Eterna round: R96, puzzle: Sensor v2, turn-off variant)
- apparent KD of MS2 coat protein (input ligand: FMN 200 uM): 9.97 nM
- apparent KD of MS2 coat protein [4]: 14.3 nM
- apparent KD of MS2 coat protein (input ligand: none): 13.4 nM

Sequence: CUCUAGAAAGGAUAUACAUGAGGAUCACCCAUGUCCACGCCAUAACCGAGUGCCAUCUGUAGAAGGUUCAGAGU [Eternabot (L1) Solution 96] (Eterna round: R97, puzzle: Exclusion 3)
- apparent KD of MS2 coat protein (input ligand: FMN 200 uM): 52.5 nM
- apparent KD of MS2 coat protein (input ligand: none): 29.2 nM

Sequence: UAAACAAGCUUAAGAUCCUACAUGAGGAUCACCCAUGUGCUCGUCUUAUAAGGUACUGUGACGAAAGUCACGGUACC [JL TOV1 3.06] (Eterna round: R97, puzzle: Sensor, turn-off variant 1)
- apparent KD of MS2 coat protein (input ligand: FMN 200 uM): 226 nM
- apparent KD of MS2 coat protein (input ligand: none): 194 nM

Sequence: UAUUAUUGCAAGGAUAUGCUUUUUAUUUCUUUUGCAGAAGGUGCAACAUGAGGAUCACCCAUGUUUCCGGGUAU [JR_E6_Sub033] (puzzle: Exclusion 6)
- apparent KD of MS2 coat protein [2]: 20.4 nM

Sequence: CGUGCGUAUGUGAGGAUAUGCUGGUCCUUGGAUCGGCAGAAGGCACAUGAGGAUCACCCAUGUGGUGUCGUACU [salish99_Bmod_ex4_081] (puzzle: Brourd's mod of Exclusion 4)
- apparent KD of MS2 coat protein [2]: 216 nM

Sequence: UAUAAAACAUAGGAUAUCGAAAUUAUCAUUUAACGAGAAGGAUGAACAUGAGGAUCACCCAUGUGGUAUCAUGG [Mat - Exclusion 6 - JL Mod - D10] (puzzle: Exclusion 6)
- apparent KD of MS2 coat protein [1]: 370 nM
- apparent KD of MS2 coat protein [2]: 425 nM
- apparent KD of MS2 coat protein [3]: 238 nM

Sequence: GGCACACAUGAGGAUCACCCAUGUGAGGAUAUGUGGCGAUCGUCGAAAGACGAUAGCCAUAGAAGGCACAUGCC [Eli x1 4.08] (Eterna round: R97, puzzle: Exclusion 1)
- apparent KD of MS2 coat protein (input ligand: FMN 200 uM): 32.1 nM
- apparent KD of MS2 coat protein (input ligand: none): 18.1 nM

Sequence: CAUGAUCUUCGGAUCAUGUACAUGAGGAUCACCCAUGUGACGAGUUGAUCCUCAUACAAGCUUUUUGCUCGUCUUAU [Sensor v3 - Turn-off variant 1 - 15] (puzzle: Sensor v3, turn-off variant 1)
- apparent KD of MS2 coat protein [1]: 26.8 nM
- apparent KD of MS2 coat protein [2]: 16.7 nM
- apparent KD of MS2 coat protein [3]: 24.4 nM

Sequence: AGGUGACAUGAGGAUCACCCAUGUAAGGAUAUACGGUUAGUGGAGAGAGGGAAGAGAGGUAGAAGGUACGGAGC [JR_Exclu1_Sub058] (puzzle: Exclusion 1)
- apparent KD of MS2 coat protein [1]: 240 nM
- apparent KD of MS2 coat protein [2]: 227 nM
- apparent KD of MS2 coat protein [3]: 316 nM

Sequence: AUAAUGUAAGGAUAUCAGUCGACUAGCUGCGGCUAGUCGACUGAGAAGGUACAUGAGGAUCACCCAUGUGAAUA [E4/16-A3] (Eterna round: R97, puzzle: Exclusion 4)
- apparent KD of MS2 coat protein (input ligand: FMN 200 uM): 224 nM
- apparent KD of MS2 coat protein (input ligand: none): 41.7 nM

Sequence: ACAUGUAUUGCAGGAUAUGGGACACAUGAGGAUCACCCAUGUGACUACAUGUCAUACCACGGGUCUCAGAAGGGUAUGUACAUG [Ex NG2 #40] (Eterna round: R96, puzzle: Exclusion NG 2)
- apparent KD of MS2 coat protein (input ligand: FMN 200 uM): 28.9 nM
- apparent KD of MS2 coat protein [4]: 15.1 nM
- apparent KD of MS2 coat protein (input ligand: none): 23 nM

Sequence: AAAAUACAAGCAAGAUCCUACAUGAGGAUCACCCAUGUGCUCGUCUUAUAAAGUACUAUCACGAAAGUGAUAGUACA [Mat - Sensor v3 - turn-off var 1 - Eli Mod - D59] (puzzle: Sensor v3, turn-off variant 1)
- apparent KD of MS2 coat protein [1]: 256 nM
- apparent KD of MS2 coat protein [2]: 43.1 nM
- apparent KD of MS2 coat protein [3]: 415 nM

Sequence: CUAAAUCAUGUAGGAUAUGCAUAGCGAAGCUAUGCAGAAGGACAUGAGGAUCACCCAUGUUCUUCCGUCUGAGAACAGACGGAA [Mat - Exclusion NG 1 - Mod of JL - D32] (Eterna round: R96, puzzle: Exclusion NG 1)
- apparent KD of MS2 coat protein (input ligand: FMN 200 uM): 164 nM
- apparent KD of MS2 coat protein [4]: 21.1 nM
- apparent KD of MS2 coat protein (input ligand: none): 32.5 nM

Sequence: CUAGAUCAUUGGAUCUAGUACAUGAGGAUCACCCAUGUGACGAGUUACAUGUUAUAUAAGCUUUUUGCUCGUCAUUU [AK 1] (puzzle: Sensor v3, turn-off variant 1)
- apparent KD of MS2 coat protein [1]: 63.4 nM
- apparent KD of MS2 coat protein [2]: 81.1 nM
- apparent KD of MS2 coat protein [3]: 86.3 nM

Sequence: GCCGAAAGUGUGAGGAUAUACCUAUGGAUACAUAGGUAGAAGGCACAUGAGGAUCACCCAUGUUCCUAAUCGGC [Eli bmx4 4.18] (Eterna round: R97, puzzle: Brourd's mod of Exclusion 4)
- apparent KD of MS2 coat protein (input ligand: FMN 200 uM): 306 nM
- apparent KD of MS2 coat protein (input ligand: none): 103 nM

Sequence: CCGUUGGUAGGAUAUCCAACGAUAUACUUGAGGAUCACCCAAGUCCGUAGGGCGUUCGAAGGAGAAGGGCUGAUGG [Zaisaat] (Eterna round: R97, puzzle: Exclusion 5)
- apparent KD of MS2 coat protein (input ligand: FMN 200 uM): 120 nM
- apparent KD of MS2 coat protein (input ligand: none): 108 nM

Sequence: CUAGCGAGUGUAGGAUAUCGGACUGUUUCAGUCUGAGAAGGACAUGAGGAUCACCCAUGUAUUGCUGCGUGAGUAGCACGCUAG [JL ENG1 3.99] (Eterna round: R96, puzzle: Exclusion NG 1)
- apparent KD of MS2 coat protein (input ligand: FMN 200 uM): 32.4 nM
- apparent KD of MS2 coat protein [4]: 15.6 nM
- apparent KD of MS2 coat protein (input ligand: none): 19.5 nM

Sequence: AGUAACCGUCACGAAAGUGAUGGUUACACAAGCAAAUGUACAUGAGGAUCACCCAUGUCCUCAAUUGCUCGUCUUAU [Sensor 3 - 50] (puzzle: Sensor v3, turn-off variant 2)
- apparent KD of MS2 coat protein [1]: 106 nM
- apparent KD of MS2 coat protein [2]: 165 nM
- apparent KD of MS2 coat protein [3]: 137 nM

Sequence: ACUGGUCGAGGAUAUACAAUCGUGCUUCGGCACGUAAGAUCACAUGAGGAUCACCCAUGUAGAAGGUGACCAGU [E2/1-B2] (Eterna round: R97, puzzle: Exclusion 2)
- apparent KD of MS2 coat protein (input ligand: FMN 200 uM): 135 nM
- apparent KD of MS2 coat protein (input ligand: none): 28.3 nM

Sequence: CUGAGUGGAGGAUAUACAUGAGGAUCACCCAUGUAAAGUAGCUUGCGUACAGGCAGAUGUAGAAGGUCAUUCGG [Mod of JL 12 - Jieux - Exclusion 3] (Eterna round: R97, puzzle: Exclusion 3)
- apparent KD of MS2 coat protein (input ligand: FMN 200 uM): 28.2 nM
- apparent KD of MS2 coat protein (input ligand: none): 10.3 nM

Sequence: AUUGUUUAUGUAGGAUAUGCCUGGCGUGCCUUUGCAGAAGGACAUGAGGAUCACCCAUGUAACAUGAGGCUCACCCAUGUCGCA [salish99_ExNG1_r04_113] (Eterna round: R96, puzzle: Exclusion NG 1)
- apparent KD of MS2 coat protein (input ligand: FMN 200 uM): 481 nM
- apparent KD of MS2 coat protein [4]: 255 nM
- apparent KD of MS2 coat protein (input ligand: none): 429 nM

Sequence: AACAGGUCAGGAUAUACAUGAGGAUCACCCAUGUAGACUUCUAGUCUACCGAGGCUGUGUAGAAGGGACCUGAA [Exclusion 3 (MOD4 of #98 Marzena11)] (Eterna round: R97, puzzle: Exclusion 3)
- apparent KD of MS2 coat protein (input ligand: FMN 200 uM): 175 nM
- apparent KD of MS2 coat protein (input ligand: none): 43.3 nM

Sequence: GUGUAGUCAGGAUAUACAUAGGAAGAGAAUAUAAUAUAAGUACAUGAGGAUCACCCAUGUAGAAGGGACAGUGU [Excluse me!! 8 - Jieux - Exclusion 2] (puzzle: Exclusion 2)
- apparent KD of MS2 coat protein [2]: 29.4 nM

Sequence: AACAGUCCUUAGGAUAUGUGCGAUUAAUAUCGUGCAGAAGGAUGGACAUGAGGAUCACCCAUGUAAAUACUACC [Omei Ex6 A17] (Eterna round: R97, puzzle: Exclusion 6)
- apparent KD of MS2 coat protein (input ligand: FMN 200 uM): 62.6 nM
- apparent KD of MS2 coat protein (input ligand: none): 20.9 nM

Sequence: UAAUGCAAGCAAAGAUCUUACAUGAGGAUCACCCAUGUGCUCGUCUUAUAAAGUACUAUCACGAAAGUGAUAGUACU [Mat - Sensor v3 - turn-off var 1 - Eli Mod - D92] (puzzle: Sensor v3, turn-off variant 1)
- apparent KD of MS2 coat protein [1]: 31.5 nM
- apparent KD of MS2 coat protein [2]: 129 nM
- apparent KD of MS2 coat protein [3]: 25.2 nM

Sequence: GAAUAGGCAGGAUAUACAUGAGGAUCACCCAUGUGCAACCGAAAGGAACGUCCGAAAGGUAGAAGGGCCUAAAC [ChP 13.04.2015 #9] (puzzle: Exclusion 3)
- apparent KD of MS2 coat protein [1]: 73.7 nM
- apparent KD of MS2 coat protein [2]: 17.9 nM
- apparent KD of MS2 coat protein [3]: 19.6 nM

Sequence: AAGUCGACGGUGAGGAUAUAGGUCGAACGACAGAUCUAGAAGGUACAUGAGGAUCACCCAUGUGGGUAACGUCG [Brourd's EX4 #35] (Eterna round: R97, puzzle: Brourd's mod of Exclusion 4)
- apparent KD of MS2 coat protein (input ligand: FMN 200 uM): 36.8 nM
- apparent KD of MS2 coat protein (input ligand: none): 32.4 nM

Sequence: AGGAAUCUAGGAUAUAUAUGAAACGAUCCAGAUUCAAGGAAACAUGAGGAUCACCCAUGUAGAAGGAGAGAAAA [EX2 A.17] (Eterna round: R97, puzzle: Exclusion 2)
- apparent KD of MS2 coat protein (input ligand: FMN 200 uM): 23.4 nM
- apparent KD of MS2 coat protein (input ligand: none): 21.5 nM

Sequence: CGUCCACAUGAGGAUCACCCAUGUUAGGAUAUAAACGCCGUAGUCCAAGGACGGGCCUUUAGAAGGAGCGCGGG [Onaredgeso] (puzzle: Exclusion 1)
- apparent KD of MS2 coat protein [2]: 12.3 nM

Sequence: CCAUGGGAGCGAGGAUAUAGACCAUGGGAAGAGCUAGAAGGCGCUGACAUGAGGAUCACCCAUGUGUUCAUGAGGAGGUGGACA (Eterna round: R96, puzzle: Exclusion NG 1)
- apparent KD of MS2 coat protein (input ligand: FMN 200 uM): 215 nM
- apparent KD of MS2 coat protein [4]: 88.7 nM
- apparent KD of MS2 coat protein (input ligand: none): 113 nM

Sequence: CCCGUGUGAGGAUAUACUCUAAGCAUUGACAGUUGCUACAGGUAGAAGGCACAUGAGGAUCACCCAUGUCCCGG [EX4 C.13] (Eterna round: R97, puzzle: Exclusion 4)
- apparent KD of MS2 coat protein (input ligand: FMN 200 uM): 66 nM
- apparent KD of MS2 coat protein (input ligand: none): 295 nM
